# In the supplement of paper PMC9112550, “Optimization of the antimicrobial peptide Bac7 by deep mutational scanning” (BMC Biology, 2022):
# System: Escherichia coli TOP10
# Test: shrunken log2 fold change of peptide-encoding DNA abundance (4.5 h post-induction vs induction); higher = less antimicrobial activity (less host growth inhibition)
# Conditions: time post-induction: 4.5 h; library: site-saturation at positions 5, 18, 19, 20
# 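Further: peptides expressed intracellularly from a pBAD plasmid library in pooled LB shake-flask culture, induced with 0.3% L-arabinose, DNA abundance read by NGS, three biological replicates, DESeq2 with apeglm shrinkage.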
row,Sequence,shrunken log2 fold change
1,RRIRKRPPRLPRPRPRPPFIPRP,-0.00551
2,RRIRKRPPRLPRPRPRPPHSPRP,0.509
3,RRIRKRPPRLPRPRPRPPHTPRP,0.534
4,RRIRKRPPRLPRPRPRPPHYPRP,0.176
5,RRIRKRPPRLPRPRPRPPLCPRP,0.668
6,RRIRKRPPRLPRPRPRPPMCPRP,0.389
7,RRIRKRPPRLPRPRPRPPMPPRP,0.525
8,RRIRKRPPRLPRPRPRPPPIPRP,0.748
9,RRIRKRPPRLPRPRPRPPPKPRP,1.2
10,RRIRKRPPRLPRPRPRPPQNPRP,0.723
11,RRIRKRPPRLPRPRPRPPRIPRP,0.323
12,RRIRKRPPRLPRPRPRPPSCPRP,1.71
13,RRIRKRPPRLPRPRPRPPSLPRP,0.46
14,RRIRKRPPRLPRPRPRPPYCPRP,0.0662
15,RRIRKRPPRLPRPRPRPPYDPRP,-0.0658
16,RRIRKRPPRLPRPRPRPPYIPRP,-0.69
17,RRIRKRPPRLPRPRPRPPYKPRP,-0.142
18,RRIRKRPPRLPRPRPRPPYWPRP,0.429
19,RRIRKRPPRLPRPRPRPQCVPRP,0.117
20,RRIRKRPPRLPRPRPRPQDKPRP,-0.182
21,RRIRKRPPRLPRPRPRPQEEPRP,0.0428
22,RRIRKRPPRLPRPRPRPQFEPRP,0.177

row,Sequence,shrunken log2 fold change
1,RRIRKRPPRLPRPRPRPQFFPRP,-0.493
2,RRIRKRPPRLPRPRPRPQGPPRP,0.053
3,RRIRKRPPRLPRPRPRPQHCPRP,-0.0588
4,RRIRKRPPRLPRPRPRPQHNPRP,-0.145
5,RRIRKRPPRLPRPRPRPQIFPRP,-0.0259
6,RRIRKRPPRLPRPRPRPQIKPRP,0.0963
7,RRIRKRPPRLPRPRPRPQIRPRP,-0.0406
8,RRIRKRPPRLPRPRPRPQKEPRP,-0.00503
9,RRIRKRPPRLPRPRPRPQKKPRP,-0.111
10,RRIRKRPPRLPRPRPRPQLHPRP,0.0197
11,RRIRKRPPRLPRPRPRPQLMPRP,1.59
12,RRIRKRPPRLPRPRPRPQMCPRP,-0.0359
13,RRIRKRPPRLPRPRPRPQMEPRP,-0.0377
14,RRIRKRPPRLPRPRPRPQMSPRP,-0.164
15,RRIRKRPPRLPRPRPRPQNAPRP,-0.0942
16,RRIRKRPPRLPRPRPRPQNLPRP,0.0263
17,RRIRKRPPRLPRPRPRPQQDPRP,0.179
18,RRIRKRPPRLPRPRPRPQQFPRP,-0.0324
19,RRIRKRPPRLPRPRPRPQQLPRP,0.0814
20,RRIRKRPPRLPRPRPRPQTHPRP,0.372
21,RRIRKRPPRLPRPRPRPQWVPRP,0.0548
22,RRIRKRPPRLPRPRPRPQWWPRP,0.243

row,Sequence,shrunken log2 fold change
1,RRIRKRPPRLPRPRPRPRCWPRP,0.931
2,RRIRKRPPRLPRPRPRPRDDPRP,0.365
3,RRIRKRPPRLPRPRPRPRDKPRP,0.116
4,RRIRKRPPRLPRPRPRPRDQPRP,0.000671
5,RRIRKRPPRLPRPRPRPREEPRP,1.2
6,RRIRKRPPRLPRPRPRPREQPRP,0.609
7,RRIRKRPPRLPRPRPRPREWPRP,1.77
8,RRIRKRPPRLPRPRPRPRFCPRP,0.554
9,RRIRKRPPRLPRPRPRPRFFPRP,0.282
10,RRIRKRPPRLPRPRPRPRFYPRP,0.33
11,RRIRKRPPRLPRPRPRPRGHPRP,0.189
12,RRIRKRPPRLPRPRPRPRHMPRP,-0.0275
13,RRIRKRPPRLPRPRPRPRIDPRP,-0.154
14,RRIRKRPPRLPRPRPRPRKQPRP,0.224
15,RRIRKRPPRLPRPRPRPRMEPRP,0.0104
16,RRIRKRPPRLPRPRPRPRMFPRP,0.112
17,RRIRKRPPRLPRPRPRPRNRPRP,-0.139
18,RRIRKRPPRLPRPRPRPRPDPRP,0.446
19,RRIRKRPPRLPRPRPRPRPEPRP,0.162
20,RRIRKRPPRLPRPRPRPRRQPRP,0.333
21,RRIRKRPPRLPRPRPRPRSGPRP,0.183
22,RRIRKRPPRLPRPRPRPRVAPRP,1.11

row,Sequence,shrunken log2 fold change
1,RRIRKRPPRLPRPRPRPRYTPRP,-0.113
2,RRIRKRPPRLPRPRPRPSADPRP,0.027
3,RRIRKRPPRLPRPRPRPSCPPRP,-0.0238
4,RRIRKRPPRLPRPRPRPSDPPRP,0.0131
5,RRIRKRPPRLPRPRPRPSDQPRP,0.0938
6,RRIRKRPPRLPRPRPRPSDYPRP,-0.08
7,RRIRKRPPRLPRPRPRPSGFPRP,0.161
8,RRIRKRPPRLPRPRPRPSHGPRP,-0.216
9,RRIRKRPPRLPRPRPRPSHSPRP,-0.47
10,RRIRKRPPRLPRPRPRPSHVPRP,0.164
11,RRIRKRPPRLPRPRPRPSIIPRP,-0.221
12,RRIRKRPPRLPRPRPRPSKKPRP,0.0529
13,RRIRKRPPRLPRPRPRPSKMPRP,0.025
14,RRIRKRPPRLPRPRPRPSKPPRP,0.0859
15,RRIRKRPPRLPRPRPRPSKQPRP,0.292
16,RRIRKRPPRLPRPRPRPSLFPRP,0.125
17,RRIRKRPPRLPRPRPRPSLWPRP,0.187
18,RRIRKRPPRLPRPRPRPSMTPRP,-0.0765
19,RRIRKRPPRLPRPRPRPSSCPRP,0.31
20,RRIRKRPPRLPRPRPRPSVKPRP,-0.358
21,RRIRKRPPRLPRPRPRPSVVPRP,0.45
22,RRIRKRPPRLPRPRPRPSWKPRP,0.0521

row,Sequence,shrunken log2 fold change
1,RRIRKRPPRLPRPRPRPSYLPRP,-0.144
2,RRIRKRPPRLPRPRPRPSYVPRP,-0.294
3,RRIRKRPPRLPRPRPRPTAKPRP,0.00802
4,RRIRKRPPRLPRPRPRPTALPRP,0.213
5,RRIRKRPPRLPRPRPRPTARPRP,0.508
6,RRIRKRPPRLPRPRPRPTCMPRP,0.576
7,RRIRKRPPRLPRPRPRPTCNPRP,0.198
8,RRIRKRPPRLPRPRPRPTECPRP,0.119
9,RRIRKRPPRLPRPRPRPTELPRP,0.876
10,RRIRKRPPRLPRPRPRPTFEPRP,0.312
11,RRIRKRPPRLPRPRPRPTGAPRP,1.09
12,RRIRKRPPRLPRPRPRPTGPPRP,0.588
13,RRIRKRPPRLPRPRPRPTGYPRP,0.214
14,RRIRKRPPRLPRPRPRPTHEPRP,0.267
15,RRIRKRPPRLPRPRPRPTHLPRP,0.149
16,RRIRKRPPRLPRPRPRPTHTPRP,0.285
17,RRIRKRPPRLPRPRPRPTIEPRP,0.236
18,RRIRKRPPRLPRPRPRPTIQPRP,-0.0129
19,RRIRKRPPRLPRPRPRPTKHPRP,0.195
20,RRIRKRPPRLPRPRPRPTNQPRP,0.289
21,RRIRKRPPRLPRPRPRPTPDPRP,0.559
